According to publication PMC6627510 (2019):

Target: Stl_(SaPIbov1) protein (staphylococcal repressor) (Staphylococcus aureus)
Test: ITC

Binder	Kd [nM]
Escherichia coli dUTPase Q93H mutant (enzyme) not shown	60.8
Escherichia coli dUTPase Q93R mutant (enzyme) not shown	97.2
